Results from patent publication US20190177366A1 (published 2019).
Bridge positions count the residues as written; N and C are the ends. Square brackets hold non-standard residues; d marks the D form. Ends that are not written are not given here. hArg = N=C(N)NCCCC[C@H](N)C(=O)O

Assays:
[1] = target: T1, PCSK9Δhelix (human, UniProt Q8NBP7 31-152); experiment: SPR
T1 construct: domain: prodomain; Construct M1-Q692 with engineered TEV site, cut with TEV; His-tagged (tag not written as a part); also called His-PCSK9Δhelix; open groove PCSK9Δhelix

[2] = target: T2, proprotein convertase subtilisin/kexin type 9 (PCSK9) (human, UniProt Q8NBP7 31-152); experiment: phage competition ELISA
T2 construct: domain: prodomain; Recombinant; tag not written as a part; also called rec.PCSK9; His-PCSK9

[3] = target: T3, His-tagged, full-length PCSK9 (human, UniProt Q8NBP7 31-152; Q8NBP7 153-692); experiment: TR-FRET competition, His-PCSK9; competitor EGF(A)-Fc
T3 construct: Target protein of the PCSK9/EGF(A) TR-FRET assay (10 nM); also called His-PCSK9

[4] = target: T2, proprotein convertase subtilisin/kexin …; experiment: phage ELISA
[5] = target: T4, His-tagged PCSK9Δhelix (human, UniProt Q8NBP7 31-152; Q8NBP7 168-692); experiment: TR-FRET competition; competitor Ab20 on His-PCSK9Δhelix
T4 construct: Human PCSK9 M1-Q692 with engineered TEV site, cleaved by TEV protease; Target protein of the PCSK9Δhelix/Ab20 TR-FRET assay (1.25 nM); also called His-PCSK9Δhelix

[6] = target: T5, His-tagged, full-length PCSK9 (human, UniProt A8T644 31-152; Q8NBP7 153-692); experiment: TR-FRET competition; competitor EGF(A)-Fc on His-PCSK9
T5 construct: Target protein of the PCSK9/EGF(A) TR-FRET assay (10 nM); also called His-PCSK9; proprotein convertase subtilisin/kexin type 9

[7] = target: T6, human PCSK9 (proprotein convertase subtilisin/kexin type 9), His-tagged, full-length (human, UniProt A8T644 31-152; Q8NBP7 153-692, limits assumed); experiment: TR-FRET competition vs EGF(A)-Fc on His-PCSK9
T6 construct: The secreted protein is the prodomain plus the catalytic/Cys-rich part (N-terminus S153) after autocleavage; also called His-PCSK9; NARC-1

[8] = target: T7, PCSK9Δhelix (human PCSK9 lacking the P' helix, His-tagged) (human, UniProt Q8NBP7 31-152; Q8NBP7 168-692); experiment: TR-FRET competition vs Ab20 on His-PCSK9Δhelix
T7 construct: Construct M1-Q692 with engineered TEV site (Y166, R167 deleted, ENLYFQS inserted between R165 and A168), cleaved by TEV protease; new N-terminus of the catalytic domain is S-A168; also called His-PCSK9Δhelix
T7 sequence (Q8NBP7 31-152, stated change not applied, chain 1 of 2): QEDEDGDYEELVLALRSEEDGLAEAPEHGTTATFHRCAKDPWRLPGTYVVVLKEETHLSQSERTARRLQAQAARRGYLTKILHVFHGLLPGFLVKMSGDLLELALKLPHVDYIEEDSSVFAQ
T7 sequence (Q8NBP7 other isoform, or with tags, fused parts or gaps mutant, chain 2 of 2): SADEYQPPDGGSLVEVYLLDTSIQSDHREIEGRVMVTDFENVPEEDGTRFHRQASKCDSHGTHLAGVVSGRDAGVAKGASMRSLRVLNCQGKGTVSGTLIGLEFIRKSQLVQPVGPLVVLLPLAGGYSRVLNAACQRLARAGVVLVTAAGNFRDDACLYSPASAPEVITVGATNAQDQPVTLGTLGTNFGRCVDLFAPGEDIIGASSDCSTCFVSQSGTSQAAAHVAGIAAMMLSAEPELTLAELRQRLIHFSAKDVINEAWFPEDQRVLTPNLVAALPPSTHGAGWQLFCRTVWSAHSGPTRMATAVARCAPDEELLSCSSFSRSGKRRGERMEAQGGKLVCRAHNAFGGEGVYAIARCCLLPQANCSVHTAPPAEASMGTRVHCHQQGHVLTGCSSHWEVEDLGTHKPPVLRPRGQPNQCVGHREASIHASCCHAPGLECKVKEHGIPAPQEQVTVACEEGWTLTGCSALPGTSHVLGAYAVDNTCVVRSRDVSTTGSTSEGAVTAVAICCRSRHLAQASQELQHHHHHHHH

T4 sequence (Q8NBP7 31-152, stated change not applied, chain 1 of 2): as the sequence (Q8NBP7 31-152, stated change not applied, chain 1 of 2) above
T4 sequence (Q8NBP7 other isoform, or with tags, fused parts or gaps mutant, chain 2 of 2): as the sequence (Q8NBP7 other isoform, or with tags, fused parts or gaps mutant, chain 2 of 2) above
T2 sequence (Q8NBP7 31-152 limits assumed, chain 1 of 2): as the sequence (Q8NBP7 31-152, stated change not applied, chain 1 of 2) above
T2 sequence (Q8NBP7 153-692 limits assumed, chain 2 of 2): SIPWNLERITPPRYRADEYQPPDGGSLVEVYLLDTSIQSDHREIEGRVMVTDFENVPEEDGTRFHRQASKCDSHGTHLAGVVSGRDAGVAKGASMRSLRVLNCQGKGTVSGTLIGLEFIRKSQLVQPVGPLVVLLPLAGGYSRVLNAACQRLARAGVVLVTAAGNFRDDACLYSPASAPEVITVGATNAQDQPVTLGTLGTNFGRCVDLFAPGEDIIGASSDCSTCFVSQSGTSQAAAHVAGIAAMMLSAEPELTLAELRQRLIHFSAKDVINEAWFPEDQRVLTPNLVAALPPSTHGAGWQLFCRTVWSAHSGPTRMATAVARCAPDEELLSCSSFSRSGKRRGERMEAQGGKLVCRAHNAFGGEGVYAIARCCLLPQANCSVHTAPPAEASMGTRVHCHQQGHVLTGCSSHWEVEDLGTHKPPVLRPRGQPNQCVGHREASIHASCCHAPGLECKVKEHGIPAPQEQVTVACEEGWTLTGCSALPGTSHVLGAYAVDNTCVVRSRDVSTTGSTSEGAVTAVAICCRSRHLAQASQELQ
T5 sequence (A8T644 31-152 limits assumed, chain 1 of 2): as the sequence (Q8NBP7 31-152, stated change not applied, chain 1 of 2) above
T5 sequence (A8T644 other isoform, or with tags, fused parts or gaps limits assumed, chain 2 of 2): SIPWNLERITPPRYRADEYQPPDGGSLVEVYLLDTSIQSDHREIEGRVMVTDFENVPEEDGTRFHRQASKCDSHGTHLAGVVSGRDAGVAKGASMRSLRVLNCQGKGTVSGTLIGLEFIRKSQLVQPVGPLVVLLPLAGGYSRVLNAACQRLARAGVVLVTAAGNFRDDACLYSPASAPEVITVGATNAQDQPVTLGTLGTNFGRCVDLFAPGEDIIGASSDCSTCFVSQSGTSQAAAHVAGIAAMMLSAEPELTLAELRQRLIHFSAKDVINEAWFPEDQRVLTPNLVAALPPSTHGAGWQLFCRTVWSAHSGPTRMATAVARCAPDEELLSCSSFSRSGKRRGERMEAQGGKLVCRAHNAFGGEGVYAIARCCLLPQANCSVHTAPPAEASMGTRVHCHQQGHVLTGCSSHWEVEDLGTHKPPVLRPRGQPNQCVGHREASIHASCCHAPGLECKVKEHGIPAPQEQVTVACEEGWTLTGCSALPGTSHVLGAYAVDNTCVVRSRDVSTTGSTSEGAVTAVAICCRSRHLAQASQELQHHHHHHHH
T1 sequence (Q8NBP7 31-152 limits assumed, stated change not applied, form in doubt, chain 1 of 2): as the sequence (Q8NBP7 31-152, stated change not applied, chain 1 of 2) above
T1 sequence (Q8NBP7 other isoform, or with tags, fused parts or gaps mutant limits assumed, form in doubt, chain 2 of 2): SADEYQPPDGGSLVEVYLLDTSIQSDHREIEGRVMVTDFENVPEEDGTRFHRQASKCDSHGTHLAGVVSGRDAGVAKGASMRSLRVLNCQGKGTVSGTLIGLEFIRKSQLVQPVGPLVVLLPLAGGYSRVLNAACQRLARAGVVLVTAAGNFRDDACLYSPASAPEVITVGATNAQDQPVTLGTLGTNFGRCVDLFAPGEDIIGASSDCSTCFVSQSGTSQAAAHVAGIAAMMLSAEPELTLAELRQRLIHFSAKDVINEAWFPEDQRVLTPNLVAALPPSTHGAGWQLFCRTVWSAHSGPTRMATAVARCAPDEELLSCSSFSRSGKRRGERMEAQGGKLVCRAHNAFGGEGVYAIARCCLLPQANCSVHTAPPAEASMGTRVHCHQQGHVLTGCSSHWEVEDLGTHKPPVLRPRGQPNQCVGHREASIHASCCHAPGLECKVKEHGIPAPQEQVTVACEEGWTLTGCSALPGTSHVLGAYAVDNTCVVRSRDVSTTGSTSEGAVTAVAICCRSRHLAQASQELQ
T3 sequence (Q8NBP7 31-152, chain 1 of 2): as the sequence (Q8NBP7 31-152, stated change not applied, chain 1 of 2) above
T3 sequence (Q8NBP7 other isoform, or with tags, fused parts or gaps, chain 2 of 2): as the sequence (A8T644 other isoform, or with tags, fused parts or gaps limits assumed, chain 2 of 2) above
T6 sequence (A8T644 31-152 limits assumed, chain 1 of 2): as the sequence (Q8NBP7 31-152, stated change not applied, chain 1 of 2) above
T6 sequence (A8T644 other isoform, or with tags, fused parts or gaps limits assumed, chain 2 of 2): as the sequence (A8T644 other isoform, or with tags, fused parts or gaps limits assumed, chain 2 of 2) above

How did the “fold improvement of binding affinity against Compound 53” value [1] turn out when Ac-WNLV[hArg]IGLLR-NH2 (Ac-WNLV(homoR)IGLLR-NH2) [Compound 192] was run?
Its value is 14 fold.

Ac-WNLVRIGLLR-NH2 [Compound 53] was tested. Which “fold reduction of binding affinity against Compound 35” value [1] did it give?
The value was 10 fold.

Does SGCRLPWNLQRIGLPC (not fully specified (bridges); cysteine pairing not given here, Synthetic peptide) [K9gvpep4] bind [2]?
Result: binds

Ac-SGDLMPWNLVRIGLLR-NH2 [Compound 122] was tested. Which IC50 [3] did it give?
Its IC50 is at least 50 µM.

B1: Phage-displayed Pep2-8 (on p8) (peptide)
chain: TVFTSWEEYLDWV
notes: Peptide fused to the N-terminus of p8 on M13 phage; also called phage displaying Pep2-8; not shown: M13 major coat protein p8
Does B1 bind [4]?
Result: binds

B2: Compound 108 (peptide)
peptide: Ac-CR[dL]PWNLQRIGLPC-NH2
modifications: disulfide 1-14
SMILES: CC[C@H](C)[C@@H]1NC(=O)[C@H](CCCNC(=N)N)NC(=O)[C@H](CCC(N)=O)NC(=O)[C@H](CC(C)C)NC(=O)[C@H](CC(N)=O)NC(=O)[C@H](Cc2c[nH]c3ccccc23)NC(=O)[C@@H]2CCCN2C(=O)[C@@H](CC(C)C)NC(=O)[C@H](CCCNC(=N)N)NC(=O)[C@@H](NC(C)=O)CSSC[C@@H](C(N)=O)NC(=O)[C@@H]2CCCN2C(=O)[C@H](CC(C)C)NC(=O)CNC1=O
What does the source list for B2?
IC50 [5]: 28.2 µM; IC50 [6]: > 50 µM

How did the IC50 [7] turn out when Ac-DLMPWNLVRIALLR-NH2 [Compound 57] was run?
Its IC50 is over 50 µM.

And the IC50 [8]?
Its IC50 is 49.5 µM.

B3: Compound 109 (peptide)
peptide: Ac-C[dR]LPWNLQRIGLPC-NH2
modifications: disulfide 1-14
SMILES: CC[C@H](C)[C@@H]1NC(=O)[C@H](CCCNC(=N)N)NC(=O)[C@H](CCC(N)=O)NC(=O)[C@H](CC(C)C)NC(=O)[C@H](CC(N)=O)NC(=O)[C@H](Cc2c[nH]c3ccccc23)NC(=O)[C@@H]2CCCN2C(=O)[C@H](CC(C)C)NC(=O)[C@@H](CCCNC(=N)N)NC(=O)[C@@H](NC(C)=O)CSSC[C@@H](C(N)=O)NC(=O)[C@@H]2CCCN2C(=O)[C@H](CC(C)C)NC(=O)CNC1=O
B3 was tested. Which IC50 [5] did it give?
Its IC50 is 1.67 µM.

What about the IC50 [6] of the same binder?
The IC50 was over 50 µM.
